# Experimental data taken from US20230357342A1 (published 2023).
# T1: IL-18 receptor on HEK-Blue IL18R reporter cells (UniProt Q13478 19-541; O95256 20-599, limits assumed)
# T1 sequence (looked up) 1: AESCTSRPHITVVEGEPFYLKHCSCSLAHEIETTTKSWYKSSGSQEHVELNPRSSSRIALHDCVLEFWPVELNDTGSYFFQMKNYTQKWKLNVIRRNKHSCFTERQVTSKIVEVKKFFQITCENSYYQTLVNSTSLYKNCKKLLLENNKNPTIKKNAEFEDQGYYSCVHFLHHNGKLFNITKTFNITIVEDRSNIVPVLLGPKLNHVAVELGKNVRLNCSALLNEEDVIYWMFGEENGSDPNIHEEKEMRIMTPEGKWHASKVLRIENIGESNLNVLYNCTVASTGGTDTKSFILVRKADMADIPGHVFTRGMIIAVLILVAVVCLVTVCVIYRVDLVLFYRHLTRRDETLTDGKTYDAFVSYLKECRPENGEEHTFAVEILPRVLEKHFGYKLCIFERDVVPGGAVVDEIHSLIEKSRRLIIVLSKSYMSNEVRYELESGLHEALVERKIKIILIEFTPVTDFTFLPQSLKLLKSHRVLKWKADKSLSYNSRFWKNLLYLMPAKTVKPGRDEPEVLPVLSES
# T1 sequence (looked up) 2: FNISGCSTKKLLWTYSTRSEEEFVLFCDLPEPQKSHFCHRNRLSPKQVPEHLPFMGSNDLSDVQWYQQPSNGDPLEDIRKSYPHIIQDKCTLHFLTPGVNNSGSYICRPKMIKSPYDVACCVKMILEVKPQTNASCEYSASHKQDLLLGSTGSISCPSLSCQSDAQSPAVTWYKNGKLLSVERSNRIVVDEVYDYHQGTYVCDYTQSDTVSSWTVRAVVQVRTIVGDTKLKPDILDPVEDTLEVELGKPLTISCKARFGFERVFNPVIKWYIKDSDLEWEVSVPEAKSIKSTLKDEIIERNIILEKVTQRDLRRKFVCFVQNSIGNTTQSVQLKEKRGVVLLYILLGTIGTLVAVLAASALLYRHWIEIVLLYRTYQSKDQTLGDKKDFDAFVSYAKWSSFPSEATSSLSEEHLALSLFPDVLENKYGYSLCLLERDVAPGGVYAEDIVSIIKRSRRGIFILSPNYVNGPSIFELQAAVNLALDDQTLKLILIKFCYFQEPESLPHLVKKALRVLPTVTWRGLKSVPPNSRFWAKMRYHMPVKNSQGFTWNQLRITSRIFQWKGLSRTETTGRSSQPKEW
# T2: Fc fused human IL-18Rα (human, UniProt Q13478 19-329)
# T2 construct: captured by anti-human IgG on a CM5 chip; also called IL-18Rα monomer; human IL-18 receptor alpha (CD218a); not shown: Fc portion
# T2 sequence (looked up): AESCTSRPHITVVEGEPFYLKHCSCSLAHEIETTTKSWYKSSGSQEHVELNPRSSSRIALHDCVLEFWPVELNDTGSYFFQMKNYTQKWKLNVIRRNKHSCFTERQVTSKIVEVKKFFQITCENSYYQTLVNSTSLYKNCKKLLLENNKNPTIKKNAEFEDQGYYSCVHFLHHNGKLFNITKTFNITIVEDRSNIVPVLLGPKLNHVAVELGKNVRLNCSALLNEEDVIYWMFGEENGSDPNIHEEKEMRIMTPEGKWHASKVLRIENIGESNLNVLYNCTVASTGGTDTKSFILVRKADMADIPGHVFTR
# T3: IL-18Rα/β heterodimer (Fc fused human IL-18Rα mixed with Fc fused human IL-18Rβ) (human, UniProt Q13478 19-329; O95256 20-356)
# T3 construct: 6 µg/mL of alpha and beta receptors were mixed and pre-incubated 30 min before capture on anti-human IgG; also called alpha/beta heterodimer IL-18 receptor; heterodimeric human IL-18 receptor alpha (CD218a) and IL-18R accessory protein (IL-18RAP/CDw218b); not shown: Fc portion
# T3 sequence (looked up) 1: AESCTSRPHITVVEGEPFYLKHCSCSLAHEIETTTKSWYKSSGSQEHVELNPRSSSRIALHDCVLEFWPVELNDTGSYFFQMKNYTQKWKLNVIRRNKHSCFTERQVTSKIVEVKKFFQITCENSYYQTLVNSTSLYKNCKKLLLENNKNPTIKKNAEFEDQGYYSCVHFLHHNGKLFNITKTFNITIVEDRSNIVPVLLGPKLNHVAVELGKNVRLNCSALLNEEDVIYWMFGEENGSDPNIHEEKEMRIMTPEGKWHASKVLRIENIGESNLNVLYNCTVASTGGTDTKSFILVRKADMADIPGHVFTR
# T3 sequence (looked up) 2: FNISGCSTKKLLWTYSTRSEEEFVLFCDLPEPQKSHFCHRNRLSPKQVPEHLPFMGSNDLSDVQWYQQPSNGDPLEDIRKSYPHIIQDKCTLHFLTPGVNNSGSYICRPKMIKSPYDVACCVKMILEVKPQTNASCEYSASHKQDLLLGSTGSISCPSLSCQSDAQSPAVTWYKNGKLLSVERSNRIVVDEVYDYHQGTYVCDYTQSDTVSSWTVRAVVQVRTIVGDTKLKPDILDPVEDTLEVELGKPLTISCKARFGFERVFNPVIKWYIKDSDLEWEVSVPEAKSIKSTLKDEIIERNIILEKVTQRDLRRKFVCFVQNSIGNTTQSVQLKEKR
# Key:
# [1] = molecular target: T1, IL-18 receptor on HEK-Blue IL18R …; assay: cell-based or functional assay
# Fc fused human IL-18Rα = molecular target: T2, Fc fused human IL-18Rα; assay: SPR, Fc-IL-18Rα captured via anti-human IgG, IL-18 as analyte, 1:1 model
# Protocol: (§1) The interaction of the wild type and of modified IL-18 polypeptides with human IL-18 receptor subunits are measured with Surface Plasmon Resonance (SPR) technology. Anti-human IgG antibodies are bound by amine coupling onto a CM5 chip to capture 6 μg/mL of Fc fused human IL-18Rα, 6 μg/mL of Fc fused human IL-18Rβ, or 2 μg/mL of Fc fused human IL-18BP isoform a (IL-18BPa) for 30 min before capture. In other settings, 6 μg/mL of alpha and beta IL-18 receptors are mixed and pre-incubated for 30 min before capture of the alpha/beta heterodimer IL-18 receptor.
# (§2) The kinetic binding of the IL-18 analytes are measured with a Biacore 8K instrument in two fold serial dilutions starting at 1 μM down to 0.98 nM. Regeneration of the surface back to amine coupled anti IgG antibody is done after every concentration of analyte. To measure the protein association to the receptors, the samples are injected with a flow rate of 50 μL/min for 60 s, followed by 300 s buffer only to detect the dissociation. The used running buffer is 1×PBS with 0.05% Tween20. The relative response units (RU, Y-axis) are plotted against time (s, X-axis) and analyzed in a kinetic 1:1 binding model for the monomer receptor binding and for the binding to the IL-18BP. A kinetic heterogenous ligand fit model is applied for the alpha/beta heterodimer binding.
# [2] = molecular target: T3, IL-18Rα/β heterodimer (Fc fused human …); assay: SPR, Fc-IL-18Rα and Fc-IL-18Rβ pre-mixed and captured, IL-18 as analyte, heterogeneous ligand model
# Protocol: as §1, §2
Binder,"EC50, HEK-Blue IL18R reporter (SEAP) [1] [nM]",Kd (Fc fused human IL-18Rα) [nM],koff (Fc fused human IL-18Rα) [s⁻¹],kon (Fc fused human IL-18Rα) [M⁻¹ s⁻¹],Kd [2] [nM],koff [2] [s⁻¹],kon [2] [M⁻¹ s⁻¹]
"modified IL-18 polypeptide SEQ ID NO: 57 (E6K, C38S, K53A) (ligand) YFGKLKSKLSVIRNLNDQVLFIDQGNRPLFEDMTDSDSRDNAPRTIFIISMYADSQPRGMAVTISVKCEKISTLSCENKIISFKEMNPPDNIKDTKSDIIFFQRSVPGHDNKMQFESSSYEGYFLACEKERDLFKLILKKEDELGDRSIMFTVQNED",0.53,72.4,0.0151,208000,2.92,0.0008,279000
"modified IL-18 polypeptide SEQ ID NO: 244 (N-terminal G, E6K, V11I, C38A, M51G, K53A, T63A, C76A, C127A) (ligand) GYFGKLKSKLSIIRNLNDQVLFIDQGNRPLFEDMTDSDARDNAPRTIFIISGYADSQPRGMAVAISVKCEKISTLSAENKIISFKEMNPPDNIKDTKSDIIFFQRSVPGHDNKMQFESSSYEGYFLAAEKERDLFKLILKKEDELGDRSIMFTVQNED",14,–,–,–,–,–,–
